Patent US20230381350A1 (PRECIRIX N V, published 2023)

T1: human FAP recombinant protein (human, UniProt Q12884 26-760)
T1 construct: The protein was biotinylated with sulfo-NHS-SS-biotin for bio-layer interferometry; also called extracellular domain of human FAP with N-terminal His6-tag
T1 sequence: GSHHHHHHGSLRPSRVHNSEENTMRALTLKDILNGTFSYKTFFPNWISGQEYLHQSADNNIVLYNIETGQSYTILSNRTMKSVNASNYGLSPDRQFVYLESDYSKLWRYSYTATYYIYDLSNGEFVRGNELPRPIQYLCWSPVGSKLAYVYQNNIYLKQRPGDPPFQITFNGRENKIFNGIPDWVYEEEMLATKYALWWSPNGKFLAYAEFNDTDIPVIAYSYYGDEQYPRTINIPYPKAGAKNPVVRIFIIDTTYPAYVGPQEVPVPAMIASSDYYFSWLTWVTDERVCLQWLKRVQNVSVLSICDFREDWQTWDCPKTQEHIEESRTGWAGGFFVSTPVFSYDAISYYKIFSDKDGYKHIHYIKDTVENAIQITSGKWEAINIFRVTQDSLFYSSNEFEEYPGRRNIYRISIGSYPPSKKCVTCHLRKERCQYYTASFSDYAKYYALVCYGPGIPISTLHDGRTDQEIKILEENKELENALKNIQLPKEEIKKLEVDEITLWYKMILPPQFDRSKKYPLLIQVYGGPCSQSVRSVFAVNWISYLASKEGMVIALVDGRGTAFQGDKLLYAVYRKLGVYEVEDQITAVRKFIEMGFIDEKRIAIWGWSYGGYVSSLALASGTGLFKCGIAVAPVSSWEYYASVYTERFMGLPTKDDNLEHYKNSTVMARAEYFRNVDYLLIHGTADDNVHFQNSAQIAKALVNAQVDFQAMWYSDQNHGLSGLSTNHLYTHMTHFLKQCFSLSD

T2: murine FAP recombinant protein (murine, UniProt P97321 26-761)
T2 construct: The protein was biotinylated for bio-layer interferometry; also called extracellular domain of murine FAP with N-terminal His6-tag
T2 sequence: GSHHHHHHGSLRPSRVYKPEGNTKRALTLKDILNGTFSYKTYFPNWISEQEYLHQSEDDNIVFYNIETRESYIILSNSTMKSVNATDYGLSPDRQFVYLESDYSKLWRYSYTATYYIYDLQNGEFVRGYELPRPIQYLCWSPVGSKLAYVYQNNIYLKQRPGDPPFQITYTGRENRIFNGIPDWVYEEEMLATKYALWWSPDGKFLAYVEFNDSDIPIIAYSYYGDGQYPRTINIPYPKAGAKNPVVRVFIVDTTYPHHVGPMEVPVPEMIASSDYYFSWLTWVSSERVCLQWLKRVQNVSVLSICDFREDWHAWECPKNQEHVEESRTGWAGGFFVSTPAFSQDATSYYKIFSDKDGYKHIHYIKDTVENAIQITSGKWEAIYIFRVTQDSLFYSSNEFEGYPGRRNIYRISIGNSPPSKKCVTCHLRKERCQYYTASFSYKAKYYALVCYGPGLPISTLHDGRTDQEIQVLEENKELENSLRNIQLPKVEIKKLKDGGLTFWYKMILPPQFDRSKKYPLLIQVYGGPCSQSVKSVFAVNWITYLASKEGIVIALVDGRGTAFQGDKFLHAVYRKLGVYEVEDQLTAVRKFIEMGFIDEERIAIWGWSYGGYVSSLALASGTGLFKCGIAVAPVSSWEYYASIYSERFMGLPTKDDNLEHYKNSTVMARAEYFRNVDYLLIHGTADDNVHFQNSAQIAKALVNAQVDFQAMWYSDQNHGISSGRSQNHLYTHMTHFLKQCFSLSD

T3: human FAP expressed on cells (human, UniProt Q12884 1-760)
T3 construct: also called human FAP cell surface protein; human FAP receptor
T3 sequence: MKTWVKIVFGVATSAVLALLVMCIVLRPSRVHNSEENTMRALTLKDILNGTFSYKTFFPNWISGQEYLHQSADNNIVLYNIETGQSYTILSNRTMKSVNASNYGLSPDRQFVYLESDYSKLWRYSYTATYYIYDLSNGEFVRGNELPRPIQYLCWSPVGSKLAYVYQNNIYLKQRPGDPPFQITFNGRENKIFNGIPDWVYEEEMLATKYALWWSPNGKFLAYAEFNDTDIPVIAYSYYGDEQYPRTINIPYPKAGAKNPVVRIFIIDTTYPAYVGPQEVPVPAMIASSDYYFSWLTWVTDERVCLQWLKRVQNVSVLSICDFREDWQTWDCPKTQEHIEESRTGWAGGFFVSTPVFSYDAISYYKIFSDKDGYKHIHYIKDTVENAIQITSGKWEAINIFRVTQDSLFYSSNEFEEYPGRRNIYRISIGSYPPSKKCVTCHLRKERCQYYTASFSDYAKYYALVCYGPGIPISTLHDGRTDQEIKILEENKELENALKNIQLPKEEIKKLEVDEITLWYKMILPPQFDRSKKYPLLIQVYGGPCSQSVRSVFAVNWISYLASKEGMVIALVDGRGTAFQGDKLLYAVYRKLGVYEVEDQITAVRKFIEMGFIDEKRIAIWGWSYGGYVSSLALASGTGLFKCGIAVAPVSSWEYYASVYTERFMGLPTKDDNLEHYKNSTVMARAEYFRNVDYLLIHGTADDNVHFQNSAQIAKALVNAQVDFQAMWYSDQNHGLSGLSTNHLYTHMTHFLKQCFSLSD

T4: murine FAP expressed on cells (murine, UniProt P97321 1-761)
T4 construct: also called murine FAP cell surface protein
T4 sequence: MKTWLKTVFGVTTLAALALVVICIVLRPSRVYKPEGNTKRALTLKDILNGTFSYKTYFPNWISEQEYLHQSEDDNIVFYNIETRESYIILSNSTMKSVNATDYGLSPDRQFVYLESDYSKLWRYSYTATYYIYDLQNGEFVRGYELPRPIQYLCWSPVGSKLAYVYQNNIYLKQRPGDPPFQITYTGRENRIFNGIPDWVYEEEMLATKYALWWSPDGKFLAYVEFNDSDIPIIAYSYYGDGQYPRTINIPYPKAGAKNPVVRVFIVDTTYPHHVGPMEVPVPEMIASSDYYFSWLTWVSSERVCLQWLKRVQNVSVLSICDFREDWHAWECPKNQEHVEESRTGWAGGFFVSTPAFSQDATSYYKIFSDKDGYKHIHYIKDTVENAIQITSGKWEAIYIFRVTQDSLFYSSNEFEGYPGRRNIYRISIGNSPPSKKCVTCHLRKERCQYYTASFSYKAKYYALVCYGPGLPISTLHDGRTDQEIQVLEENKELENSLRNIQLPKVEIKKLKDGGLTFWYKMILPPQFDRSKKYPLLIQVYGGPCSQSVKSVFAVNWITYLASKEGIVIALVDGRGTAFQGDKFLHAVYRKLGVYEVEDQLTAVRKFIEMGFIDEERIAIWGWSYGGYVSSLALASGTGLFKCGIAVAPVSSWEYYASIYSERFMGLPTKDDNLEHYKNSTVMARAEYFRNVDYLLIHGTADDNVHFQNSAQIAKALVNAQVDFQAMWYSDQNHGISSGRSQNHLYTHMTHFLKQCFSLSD


How the values were obtained:
[1] = target: T1, human FAP recombinant protein; assay: ELISA, coated human FAP recombinant protein, HA-His6-tagged VHH extract, anti-HA detection
Experimental: (§1) The day before measurement, 0.1 μg recombinant protein at a concentration of 1 μg/mL in 100 mM NaHCO₃, pH 8.2 was coated in a 96-well ELISA plate (Nunc MaxiSorp). Per VHH clone also a blank coated well was foreseen (only buffer). The wells were overcoated with protein-free T20 (PBS) blocking buffer (Pierce). After washing with PBS, pH7.4, 0.05% Tween, VHH-containing bacterial freeze-thaw extract was added to every well. Binding of HA-His₆-tagged VHHs was detected by using mouse anti-HA.11 epitope tag (clone 16B12, Biolegend) as the primary Ab and goat anti-mouse IgG (whole molecule) alkaline phosphatase conjugate (Sigma-Aldrich) as the secondary Ab, with thorough washing with PBS, pH 7.4, 0.05% Tween in between. Signals were developed using phosphatase substrate (Sigma-Aldrich) in AP blot buffer (100 mM NaCl, 50 mM MgCl₂, 100 mM Tris, pH 9.5). The absorbance was determined at 405 nm using an absorbance microplate reader (Molecular Devices). Per clone the ratio was determined between the absorbance in the antigen-coated well versus the well without antigen.

[2] = target: T5, human DPP IV recombinant protein (human, UniProt P27487 29-766); assay: ELISA, coated human DPP IV, HA-His6-tagged VHH extract, anti-HA detection
T5 construct: extracellular domain; Bought protein; also called Dipeptidyl amino-peptidase IV
T5 sequence (P27487 29-766): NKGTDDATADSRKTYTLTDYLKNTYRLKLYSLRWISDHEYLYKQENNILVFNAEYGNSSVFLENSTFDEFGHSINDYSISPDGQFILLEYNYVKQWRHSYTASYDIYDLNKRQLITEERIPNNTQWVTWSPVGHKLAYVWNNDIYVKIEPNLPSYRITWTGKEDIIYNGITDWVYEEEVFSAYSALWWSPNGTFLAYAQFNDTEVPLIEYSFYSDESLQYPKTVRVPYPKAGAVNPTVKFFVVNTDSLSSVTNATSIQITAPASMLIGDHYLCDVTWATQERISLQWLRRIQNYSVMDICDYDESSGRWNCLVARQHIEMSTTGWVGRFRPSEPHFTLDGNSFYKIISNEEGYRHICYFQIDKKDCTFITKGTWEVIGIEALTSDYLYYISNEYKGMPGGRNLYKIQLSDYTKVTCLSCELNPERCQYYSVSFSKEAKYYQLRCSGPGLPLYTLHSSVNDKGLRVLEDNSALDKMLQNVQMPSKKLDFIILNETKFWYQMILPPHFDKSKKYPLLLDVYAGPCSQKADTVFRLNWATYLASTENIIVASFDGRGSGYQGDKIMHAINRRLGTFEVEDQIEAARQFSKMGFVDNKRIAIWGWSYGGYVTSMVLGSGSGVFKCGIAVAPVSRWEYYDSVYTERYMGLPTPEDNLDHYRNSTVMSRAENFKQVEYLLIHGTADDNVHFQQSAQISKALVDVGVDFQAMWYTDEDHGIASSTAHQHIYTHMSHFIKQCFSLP
Experimental: as §1

[3] = target: T5, human DPP IV recombinant protein; assay: ELISA on coated recombinant protein, VHH-containing bacterial extract, anti-HA detection, signal-to-background ratio
Experimental: as §1

[4] = target: T1, human FAP recombinant protein; assay: bio-layer interferometry (Octet RED96), biotinylated human FAP on streptavidin sensor, kinetic titration, 25 °C
Experimental: (§2) The kinetic parameters of antigen binding by purified VHHs were determined via bio-layer interferometry with an Octet RED96 instrument (ForteBio). The assay was performed at 25° C. with shaking at 1000 rpm. Streptavidin coated SA sensors were equilibrated in assay buffer (HBS supplemented with 0.5% BSA, 0.1% Tween), before loading for 5 min with the biotinylated FAP recombinant protein at a concentration of 5 μg/ml. His₆-tagged VHHs were analyzed in a threefold serial dilution from 30 nM to 0.4 nM in assay buffer (except for VHH B3 binding murine FAP recombinant protein, for which a fivefold serial dilution from 1000 nM to 1.6 nM was employed). First the baseline was measured for 180 s in assay buffer, followed by 5 subsequent association phases of 180 s with the VHH preparations in increasing order of concentration, with 75 s intermediate dissociation phases in assay buffer in between, and a final dissociation phase in assay buffer of 30 min. In every assay a reference sensor loaded with FAP recombinant protein was included that was incubated in assay buffer during the association phases.
(§3) Binding curves were exported and analyzed using the BIAevaluation analysis software (GE Healthcare). First the y-axes of the different curves were aligned to the median of the last 5 s of the baseline measurement. Subsequently, the sensorgram of the reference sensor was subtracted from all other sensorgrams. The resulting binding curve was fitted using a general fit with the ‘kinetic titration with drift’ binding model (1:1 (antigen:analyte) model; Karlsson, R. et al (2006), Analyzing a kinetic titration series using affinity biosensors. Analytical Biochemistry 349: 136-147), with Rmax fitted global, RI local and drift set to 0.
(§4) Table 7 gives an overview of the kinetic parameters of antigen binding for His₆-tagged VHHs B1, B2, B3 and B4 (SEQ ID NO: 21-24), as determined by bio-layer interferometry with biotinylated human or murine FAP recombinant protein that was loaded on the sensor.

[5] = target: T2, murine FAP recombinant protein; assay: bio-layer interferometry (Octet RED96), biotinylated murine FAP on streptavidin sensor, kinetic titration, 25 °C
Experimental: as §2, §3, §4

[6] = target: T3, human FAP expressed on cells; assay: saturation binding of 99mTc-labelled VHH on human FAP-expressing GM05389 cells (mean ± SD, n = 3)
Experimental: (§5) Next, we describe the in vitro and in vivo human and murine FAP binding potential of different VHHs after radiolabelling with the diagnostic radioisotope ^99mTc. […] His₆-tagged human/murine FAP-targeting VHHs were radiolabelled with the diagnostic radioisotope ^99mTc, according to the radiochemical procedure described in Example 3.
(§6) Next, the different cell lines were incubated with serial dilutions with concentrations ranging from 0 to 300 nM of the different ^99mTc-labelled His₆-tagged VHHs. A 100-fold excess of the corresponding unlabeled VHH was added in parallel to saturate the human or murine FAP proteins on the cancer cell surface, to assess non-specific binding. The resulting EC50 values for each of the VHHs are depicted in Table 8. […] We confirmed that ^99mTc-labeled VHH B4 only binds murine FAP cell surface protein, while VHH B3 only binds human FAP cell surface molecules in vitro.

[7] = target: T3, human FAP expressed on cells; assay: saturation binding of 99mTc-labelled VHH on human FAP-expressing HEK-293 cells (mean ± SD, n = 3)
Experimental: as §5, §6

[8] = target: T4, murine FAP expressed on cells; assay: saturation binding of 99mTc-labelled VHH on murine FAP-expressing HEK-293 cells (mean ± SD, n = 3)
Experimental: as §5, §6

| Binder | Kd [5] [nM] | koff [5] [s⁻¹] | kon [5] [M⁻¹ s⁻¹] | EC50 [6] [nM] | EC50 [7] [nM] | EC50 [8] [nM] | also measured |
| --- | --- | --- | --- | --- | --- | --- | --- |
| HA-His6-tagged VHH B1 (VHH, Used as bacterial freeze-thaw extract in ELISA and flow cytometry, and at 1 µM in the enzyme assay; also called B1 with HA-His6-tag) VHH: QVQLQESGGGLVQPGGSLRLSCVASGRLSSSNSMAWYRQVPGKRRELVAGITGGGETNYADFVGGRFTISRDNAKNGLYLQLNGLKPEDTAAYYCNFWPPLINYWGQGTQVTVSS |  |  |  |  |  |  | signal-to-background ratio [1]: > 25; signal-to-background ratio [2]: ~1; binding result [3]: no binding |
| His6-tagged VHH B2 (VHH, Purified, unlabelled; used in bio-layer interferometry; also called B2 with His6-tag) VHH: DVQLVESGGGLVQAGGSLRLSCAVSGSISSANSMGWYRQAPGKQRDVVAGLTTGGRSHYADSVKGRFTISRDNAKNTVYLQMNSLKAEDTAVYYCNLWPPVQGYWGQGTQVTVSS | 24.3 | 0.0082 | 340000 |  |  |  | Kd [4]: 0.0744 nM; koff [4]: 3.1e-05 s⁻¹; kon [4]: 420000 M⁻¹ s⁻¹ |
| His6-tagged VHH B4 (VHH, Purified, unlabelled; used in bio-layer interferometry; also called B4 with His6-tag) VHH: DVQLVESGGGLVQVGGSLRLSCVASGFTFSSYYMSWVRQAPGKGLEWVASIYADGDMTYYADSVRGRFTISRDNAKNTLYLQMNSLKSEDTAVYYCAKDPLPPYHVNQGTQVTVSS | 0.512 | 0.00056 | 1.1e+06 |  |  |  |  |
| 99mTc-labeled His6-tagged VHH B1 (VHH, [99mTc(H2O)3(CO)3] complexed at the His6-tag, also called 99mTc-B1) VHH: DVQLVESGGGLVQPGGSLRLSCVASGRLSSSNSMAWYRQVPGKRRELVAGITGGGETNYADFVGGRFTISRDNAKNGLYLQLNGLKPEDTAAYYCNFWPPLINYWGQGTQVTVSS |  |  |  | 0.5 | 0.6 | 5.8 |  |
| 99mTc-labeled His6-tagged VHH B2 (VHH, [99mTc(H2O)3(CO)3] complexed at the His6-tag, also called 99mTc-B2) VHH: DVQLVESGGGLVQAGGSLRLSCAVSGSISSANSMGWYRQAPGKQRDVVAGLTTGGRSHYADSVKGRFTISRDNAKNTVYLQMNSLKAEDTAVYYCNLWPPVQGYWGQGTQVTVSS |  |  |  | 3.2 | 13 | 139 |  |
